Consider two molecules from paper PMC8692065 (Cell Reports, 2021).

This assay deals with SARS-CoV-2 S1 (Avi-tag, biotinylated) (SARS-CoV-2, original strain, UniProt P0DTC2, biotinylated (Avi-tag)). The assay can be described thus: BLI. A general note: BLI is a label-free optical method that tracks binding on a fibre tip over time.

B1: mAb-50, purified antibody (antibody, V domains shown)
VH: QVQLQESGPGLVNPSETLSLTCGVSGYSISSGFYWGWIRQPPGKGLEWIGSIYHRGSTFYNPSLKSRVTISVDRSKNQFSLRLSSVTAADTAVYYCARGEVLTSGGYNARFDPWGQGTLVTVSS
VL: DIQMTQSPSTLSASVGDSVTITCRASQSISLWLAWYQQKPGKAPKVLIYETSSLESGVPSRFSGSGAGTEFTLTISSLQPDDFATYYCQQYISYPLTFGGGTKVEIK
The term Kd denotes the concentration at which binding is half-saturated. B1 displayed a Kd of 1.61 nM. In other words, the single-digit nanomolar range.

B2: mAb-64, purified antibody (antibody, V domains shown)
VH: EVQLVETGGGLIQPGGSLRLSCAASGFTVSSNYMSWVRQAPGKGLEWVSVIYSGGSTYYADSVKGRFTISRDNSKNTLYLQMNSLRAEDTAVYYCARDLHIYGMDVWGQGTTVTVSS
VL: DIQMTQSPSSVSASVGDRVTITCRASQGISSWLAWYQQKPGKAPKLLIYAASSLQSGVPSRFSGSGSGTDFTLTISSLQPEDFATYYCQQANSFPNFGGGTKVEIK
For B2, binding was characterised by a dissociation constant (Kd) of 1.96 nM. This Kd and that of the molecule before are within 1.5-fold of each other.
